According to patent US12319742 (SHATTUCK LABS, dated 2025):

Target: T1, biotinylated recombinant human TNFRSF25-His tagged (Acro #TN5-H52H3) (human, UniProt Q93038 25-199, biotinylated)
T1 construct: treated as the same protein; also called recombinant biotin-conjugated human TNFRSF25 protein; DR3
T1 sequence (looked up): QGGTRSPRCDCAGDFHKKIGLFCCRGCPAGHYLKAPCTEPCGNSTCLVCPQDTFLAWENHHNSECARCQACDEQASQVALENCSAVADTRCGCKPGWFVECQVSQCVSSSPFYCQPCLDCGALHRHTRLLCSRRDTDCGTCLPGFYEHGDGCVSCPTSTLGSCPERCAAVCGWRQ
Experiment: BLI/Octet; biotinylated TNFRSF25 on streptavidin sensor, antibody in solution; 1:1 Langmuir model

B1: 033_NH24 biparatopic antibody (bispecific antibody, human IgG1, kappa, L234A L235A)
heavy 1: not shown
light 1: AIQLTQSPSSLSASVGDRVTITCRASPGISSALAWYQQKPGKAPKLLMYDESSQESGVPSRFSGSGSGTDFTLTISSLQPEDFATYYCQQFNDYPLTFGGGTKVEIKRTVAAPSVFIFPPSDEQLKSGTASVVCLLNNFYPREAKVQWKVDNALQSGNSQESVTEQDSKDSTYSLSSTLTLSKADYEKHKVYACEVTHQGLSSPVTKSFNRGEC
heavy 2: EVQLVESGGGSVQPGGSLRLSCAASGFTFSSYGMSWIRQAPGKGLEWISYISSSGGHTYYADSVKGRFTISRDNAKNSLYLQMNSLRAEDTAVYYCARGSGSFDYWGQGTLVTVSSASTKGPSVFPLAPSSKSTSGGTAALGCLVKDYFPEPVTVSWNSGALTSGVHTFPAVLQSSGLYSLSSVVTVPSSSLGTQTYICNVNHKPSNTKVDKKVEPKSCDKTHTCPPCPAPEAAGGPSVFLFPPKPKDTLMISRTPEVTCVVVDVSHEDPEVKFNWYVDGVEVHNAKTKPREEQYNSTYRVVSVLTVLHQDWLNGKEYKCKVSNKALPAPIEKTISKAKGQPREPQVCTLPPSREEMTKNQVSLSCAVKGFYPSDIAVEWESNGQPENNYKTTPPVLDSDGSFFLVSKLTVDKSRWQQGNVFSCSVMHEALHNHYTQKSLSLSPGK
light 2: not shown
Kd: 0.14 nM
